Laboratory results as given in publication PMC9482650, “Quantitative fragmentomics allow affinity mapping of interactomes” (Nature Communications, 2022).
Values belong to the binder of their own block, whether it stands above or below them.

What was measured:
Assay in all cases: holdup assay
Set-up in all cases: key: below the threshold = too weak to quantify, mostly under pKd 3.1 to 4
[1] = target: AHNAK1, Q09666
[2] = target: T1, ARHGEF11, O15085
T1 sequence (O15085 42-136, limits assumed, looked up): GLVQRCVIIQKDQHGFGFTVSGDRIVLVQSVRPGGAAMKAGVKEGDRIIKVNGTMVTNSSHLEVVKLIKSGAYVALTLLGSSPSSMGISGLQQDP

[3] = target: T2, DFNB31_2, Q9P202
T2 sequence (Q9P202 274-371, limits assumed, looked up): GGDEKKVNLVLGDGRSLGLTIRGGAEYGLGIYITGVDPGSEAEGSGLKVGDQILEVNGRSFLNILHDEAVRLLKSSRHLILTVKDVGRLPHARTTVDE

[4] = target: GRASP, Q7Z6J2
[5] = target: T3, GRIP1_2, Q9Y3R0
T3 sequence (Q9Y3R0 145-248, limits assumed, looked up): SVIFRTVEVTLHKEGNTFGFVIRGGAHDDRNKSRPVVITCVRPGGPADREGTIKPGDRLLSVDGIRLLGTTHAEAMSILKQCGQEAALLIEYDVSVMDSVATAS

[6] = target: GRIP2_3, Q9C0E4
[7] = target: HTRA1, Q92743
[8] = target: Inadl_10, Q8NI35
[9] = target: Inadl_3, Q8NI35
[10] = target: Inadl_4, Q8NI35
[11] = target: Inadl_5, Q8NI35
[12] = target: Inadl_8, Q8NI35
[13] = target: LAP2, Q96RT1
[14] = target: T4, LIN7B, Q9HAP6
T4 sequence (Q9HAP6 88-185, limits assumed, looked up): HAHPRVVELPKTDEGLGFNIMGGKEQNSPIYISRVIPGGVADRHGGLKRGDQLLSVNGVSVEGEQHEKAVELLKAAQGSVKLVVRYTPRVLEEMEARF

[15] = target: T5, LNX2_3, Q8N448
T5 sequence (Q8N448 463-564, limits assumed, looked up): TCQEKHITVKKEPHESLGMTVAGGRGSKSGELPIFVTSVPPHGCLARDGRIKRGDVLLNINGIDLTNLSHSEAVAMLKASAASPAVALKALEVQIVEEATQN

[16] = target: MAGI3_2, Q5TCQ9
[17] = target: PARD3_3, Q8TEW0
[18] = target: T6, PDZD2_2, O15018
T6 sequence (O15018 329-429, limits assumed, looked up): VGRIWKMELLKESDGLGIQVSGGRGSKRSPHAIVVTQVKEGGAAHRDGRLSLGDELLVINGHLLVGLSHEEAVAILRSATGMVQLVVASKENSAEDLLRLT

[19] = target: T7, PDZRN3_1, Q9UPQ7
T7 sequence (Q9UPQ7 244-349, limits assumed, looked up): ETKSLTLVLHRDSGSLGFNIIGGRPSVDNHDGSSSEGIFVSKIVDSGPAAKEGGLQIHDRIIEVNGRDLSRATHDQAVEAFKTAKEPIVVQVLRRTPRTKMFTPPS

[20] = target: PICK1, Q9NRD5
[21] = target: T8, PTPN13_1, Q12923
T8 sequence (Q12923 1088-1188, limits assumed, looked up): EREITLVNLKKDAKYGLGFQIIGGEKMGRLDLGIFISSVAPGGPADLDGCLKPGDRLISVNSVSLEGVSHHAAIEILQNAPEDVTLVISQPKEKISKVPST

[22] = target: SCRIB_2, Q14160
[23] = target: T9, SHANK1, Q9Y566
T9 sequence (Q9Y566 658-767, limits assumed, looked up): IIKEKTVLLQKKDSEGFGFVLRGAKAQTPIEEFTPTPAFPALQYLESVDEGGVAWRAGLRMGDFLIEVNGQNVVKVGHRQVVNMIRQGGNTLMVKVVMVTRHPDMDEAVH

[24] = target: T10, SNTB1, Q13884
T10 sequence (Q13884 107-205, limits assumed, looked up): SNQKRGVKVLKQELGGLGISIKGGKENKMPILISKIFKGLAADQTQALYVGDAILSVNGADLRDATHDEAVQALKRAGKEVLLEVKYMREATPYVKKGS

[25] = target: TJP2_1, Q9UDY2
[26] = target: T11, TX1BP3, O14907
T11 sequence (O14907 10-122, limits assumed, looked up): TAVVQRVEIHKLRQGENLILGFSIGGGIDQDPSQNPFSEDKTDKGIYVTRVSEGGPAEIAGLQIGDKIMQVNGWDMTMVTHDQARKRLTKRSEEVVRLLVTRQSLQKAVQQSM

[27] = plain residues with an end cap or a label only (N-terminal biotin on a linker: ado-ado)
[28] = plain residues with an end cap or a label only (N-terminal biotin on a linker: ahx)

Chain of GRASP, Q7Z6J2 (Q7Z6J2 96-193): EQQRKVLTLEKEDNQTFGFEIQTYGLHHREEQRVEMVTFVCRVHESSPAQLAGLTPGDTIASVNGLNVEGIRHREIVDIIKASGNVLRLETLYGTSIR
Chain of Inadl_3, Q8NI35 (Q8NI35 359-469): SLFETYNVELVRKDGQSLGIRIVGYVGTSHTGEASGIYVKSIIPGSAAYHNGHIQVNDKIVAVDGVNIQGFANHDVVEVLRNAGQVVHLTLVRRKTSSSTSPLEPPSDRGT
Chain of Inadl_5, Q8NI35 (Q8NI35 673-780): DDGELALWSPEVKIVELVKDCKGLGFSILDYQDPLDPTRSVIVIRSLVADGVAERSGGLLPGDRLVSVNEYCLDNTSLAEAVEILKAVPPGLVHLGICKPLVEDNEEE
Chain of Inadl_10, Q8NI35 (Q8NI35 1673-1763): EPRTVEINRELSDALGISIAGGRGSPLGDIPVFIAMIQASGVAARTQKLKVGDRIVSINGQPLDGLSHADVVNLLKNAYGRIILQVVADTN
Chain of LAP2, Q96RT1 (Q96RT1 other isoform, or with tags, fused parts or gaps): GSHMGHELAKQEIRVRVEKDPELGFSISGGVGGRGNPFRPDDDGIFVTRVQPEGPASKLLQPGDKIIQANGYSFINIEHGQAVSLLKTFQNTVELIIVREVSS
Chain of TJP2_1, Q9UDY2 (Q9UDY2 24-128): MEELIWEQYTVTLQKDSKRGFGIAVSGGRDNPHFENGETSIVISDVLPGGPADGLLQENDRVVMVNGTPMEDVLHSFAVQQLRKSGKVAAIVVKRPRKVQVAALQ
Chain of GRIP2_3, Q9C0E4 (Q9C0E4 238-339): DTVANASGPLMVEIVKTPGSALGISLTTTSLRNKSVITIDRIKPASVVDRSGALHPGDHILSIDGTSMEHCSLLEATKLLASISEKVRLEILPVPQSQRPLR
Chain of Inadl_4, Q8NI35 (Q8NI35 547-651): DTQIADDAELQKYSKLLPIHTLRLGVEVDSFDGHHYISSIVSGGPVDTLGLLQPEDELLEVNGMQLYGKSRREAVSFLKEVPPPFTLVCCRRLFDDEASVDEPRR
Chain of PICK1, Q9NRD5 (Q9NRD5 17-115): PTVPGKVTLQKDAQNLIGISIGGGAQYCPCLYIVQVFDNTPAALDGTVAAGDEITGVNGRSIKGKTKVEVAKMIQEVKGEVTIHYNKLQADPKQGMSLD
Chain of Inadl_8, Q8NI35 (Q8NI35 1425-1530): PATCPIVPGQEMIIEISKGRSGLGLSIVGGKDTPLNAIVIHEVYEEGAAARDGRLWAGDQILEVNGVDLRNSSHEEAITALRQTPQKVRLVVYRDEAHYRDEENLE
Chain of HTRA1, Q92743 (Q92743 360-477): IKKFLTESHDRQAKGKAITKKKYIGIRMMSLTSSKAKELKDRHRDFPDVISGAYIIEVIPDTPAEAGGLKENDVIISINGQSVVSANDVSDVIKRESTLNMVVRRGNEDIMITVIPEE
Chain of MAGI3_2, Q5TCQ9 (Q5TCQ9 398-503): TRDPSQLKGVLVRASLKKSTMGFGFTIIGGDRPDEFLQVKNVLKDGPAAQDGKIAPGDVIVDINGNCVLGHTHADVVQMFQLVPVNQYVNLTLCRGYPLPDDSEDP
Chain of AHNAK1, Q09666 (Q09666 4-100): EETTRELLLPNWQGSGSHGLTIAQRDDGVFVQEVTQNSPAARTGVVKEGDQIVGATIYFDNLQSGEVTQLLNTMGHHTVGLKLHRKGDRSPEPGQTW
Chain of SCRIB_2, Q14160 (Q14160 857-960): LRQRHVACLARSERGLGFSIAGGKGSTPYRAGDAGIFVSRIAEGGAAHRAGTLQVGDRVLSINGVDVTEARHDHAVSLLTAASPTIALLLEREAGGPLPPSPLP
Chain of PARD3_3, Q8TEW0 (Q8TEW0 582-685): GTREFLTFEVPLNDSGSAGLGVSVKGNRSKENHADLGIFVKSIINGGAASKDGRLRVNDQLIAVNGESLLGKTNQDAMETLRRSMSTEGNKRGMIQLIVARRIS

B2: MTNR1A, P48039 (peptide)
chain: NNNVVKVDSV
pKd [1, 27]: below the threshold | pKd [2, 27]: below the threshold | pKd [3, 27]: below the threshold | pKd [4, 27]: below the threshold | pKd [5, 27]: below the threshold | pKd [6, 27]: below the threshold | pKd [7, 27]: below the threshold | pKd [8, 27]: below the threshold | pKd [9, 27]: below the threshold | pKd [10, 27]: below the threshold | pKd [11, 27]: below the threshold | pKd [12, 27]: 4.22 | pKd [13, 27]: below the threshold | pKd [14, 27]: 3.7 | pKd [15, 27]: below the threshold | pKd [16, 27]: below the threshold | pKd [17, 27]: below the threshold | pKd [18, 27]: 3.98 | pKd [19, 27]: below the threshold | pKd [20, 27]: 4.06 | pKd [21, 27]: below the threshold | pKd [22, 27]: below the threshold | pKd [23, 27]: below the threshold | pKd [24, 27]: below the threshold | pKd [25, 27]: below the threshold | pKd [26, 27]: below the threshold

B4: ACE2, Q9BYF1 (peptide)
chain: QNTDDVQTSF
pKd [1, 28]: below the threshold | pKd [2, 28]: below the threshold | pKd [3, 28]: below the threshold | pKd [4, 28]: 4.29 | pKd [5, 28]: below the threshold | pKd [6, 28]: below the threshold | pKd [7, 28]: below the threshold | pKd [8, 28]: below the threshold | pKd [9, 28]: 3.66 | pKd [10, 28]: below the threshold | pKd [11, 28]: below the threshold | pKd [12, 28]: below the threshold | pKd [13, 28]: below the threshold | pKd [14, 28]: below the threshold | pKd [15, 28]: below the threshold | pKd [16, 28]: below the threshold | pKd [17, 28]: below the threshold | pKd [18, 28]: below the threshold | pKd [19, 28]: below the threshold | pKd [20, 28]: below the threshold | pKd [21, 28]: below the threshold | pKd [22, 28]: below the threshold | pKd [23, 28]: 4.75 | pKd [24, 28]: below the threshold | pKd [25, 28]: below the threshold | pKd [26, 28]: below the threshold

B5: MKNK1, Q9BUB5 (peptide)
chain: GEDRSPPTAL
pKd [1, 27]: below the threshold | pKd [2, 27]: 4.01 | pKd [3, 27]: below the threshold | pKd [4, 27]: 4.62 | pKd [5, 27]: below the threshold | pKd [6, 27]: below the threshold | pKd [7, 27]: below the threshold | pKd [8, 27]: below the threshold | pKd [9, 27]: below the threshold | pKd [10, 27]: below the threshold | pKd [11, 27]: below the threshold | pKd [12, 27]: below the threshold | pKd [13, 27]: below the threshold | pKd [14, 27]: below the threshold | pKd [15, 27]: below the threshold | pKd [16, 27]: below the threshold | pKd [17, 27]: below the threshold | pKd [18, 27]: below the threshold | pKd [19, 27]: below the threshold | pKd [20, 27]: below the threshold | pKd [21, 27]: below the threshold | pKd [22, 27]: below the threshold | pKd [23, 27]: below the threshold | pKd [24, 27]: 3.51 | pKd [25, 27]: below the threshold | pKd [26, 27]: below the threshold

Second part, the binder after the results:

pKd [1, 27]: below the threshold | pKd [2, 27]: below the threshold | pKd [3, 27]: below the threshold | pKd [4, 27]: below the threshold | pKd [5, 27]: below the threshold | pKd [6, 27]: below the threshold | pKd [7, 27]: 3.9 | pKd [8, 27]: below the threshold | pKd [9, 27]: 4.63 | pKd [10, 27]: below the threshold | pKd [11, 27]: below the threshold | pKd [12, 27]: below the threshold | pKd [13, 27]: below the threshold | pKd [14, 27]: 3.53 | pKd [15, 27]: below the threshold | pKd [16, 27]: below the threshold | pKd [17, 27]: 4.29 | pKd [18, 27]: 4.17 | pKd [19, 27]: below the threshold | pKd [20, 27]: below the threshold | pKd [21, 27]: below the threshold | pKd [22, 27]: below the threshold | pKd [23, 27]: below the threshold | pKd [24, 27]: below the threshold | pKd [25, 27]: below the threshold | pKd [26, 27]: 4.09
B1: PTTG2, Q9NZH5 (peptide)
chain: LPAVCYDIDI

pKd [1, 27]: below the threshold | pKd [2, 27]: below the threshold | pKd [3, 27]: below the threshold | pKd [4, 27]: below the threshold | pKd [5, 27]: below the threshold | pKd [6, 27]: below the threshold | pKd [7, 27]: below the threshold | pKd [8, 27]: below the threshold | pKd [9, 27]: below the threshold | pKd [10, 27]: below the threshold | pKd [11, 27]: below the threshold | pKd [12, 27]: below the threshold | pKd [13, 27]: below the threshold | pKd [14, 27]: 3.62 | pKd [15, 27]: below the threshold | pKd [16, 27]: below the threshold | pKd [17, 27]: below the threshold | pKd [18, 27]: 4.65 | pKd [19, 27]: 4 | pKd [20, 27]: below the threshold | pKd [21, 27]: below the threshold | pKd [22, 27]: 3.69 | pKd [23, 27]: below the threshold | pKd [24, 27]: 5.38 | pKd [25, 27]: below the threshold | pKd [26, 27]: below the threshold
B3: SLC16A7, O60669 (peptide)
chain: SVTSERETNI
